The source of these data is patent US20050048070A1 (published 2005).

Assay [1] addresses T1, cleaved K8/K18 heterotypic complexes from adenovirus-infected HeLa cells (human, UniProt P05787 2-483; P05783 75-430, limits assumed).
T1 construct: also called cytokeratin from HeLa cells infected with adenovirus
T1 chain 1: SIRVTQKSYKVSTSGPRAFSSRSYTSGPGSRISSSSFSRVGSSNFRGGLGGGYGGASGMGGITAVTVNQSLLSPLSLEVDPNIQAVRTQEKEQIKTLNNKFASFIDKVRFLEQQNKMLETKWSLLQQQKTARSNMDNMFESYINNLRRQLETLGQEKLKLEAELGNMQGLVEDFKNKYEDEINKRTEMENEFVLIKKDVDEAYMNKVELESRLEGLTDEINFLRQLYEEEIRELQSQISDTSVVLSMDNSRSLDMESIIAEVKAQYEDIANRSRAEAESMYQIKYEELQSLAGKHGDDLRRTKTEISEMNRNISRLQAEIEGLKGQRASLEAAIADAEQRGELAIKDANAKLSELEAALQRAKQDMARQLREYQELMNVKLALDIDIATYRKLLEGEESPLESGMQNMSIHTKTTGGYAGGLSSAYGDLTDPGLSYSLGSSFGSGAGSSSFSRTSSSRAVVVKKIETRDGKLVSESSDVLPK
T1 chain 2: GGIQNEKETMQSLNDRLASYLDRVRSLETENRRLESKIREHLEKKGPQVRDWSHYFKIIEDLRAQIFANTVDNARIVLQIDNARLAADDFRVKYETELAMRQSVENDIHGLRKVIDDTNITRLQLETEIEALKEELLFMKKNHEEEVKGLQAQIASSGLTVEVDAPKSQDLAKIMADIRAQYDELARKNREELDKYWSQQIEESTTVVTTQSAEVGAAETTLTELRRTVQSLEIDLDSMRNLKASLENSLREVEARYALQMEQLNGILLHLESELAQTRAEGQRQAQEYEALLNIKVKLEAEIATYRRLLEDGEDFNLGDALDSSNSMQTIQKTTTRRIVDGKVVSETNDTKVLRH
Kind of assay: Western blot of cytokeratin purified from adenovirus-infected HeLa cells (data not shown). (In general: A western blot detects proteins with antibodies after separation by electrophoresis.)

Assay [2] addresses T2, K18(1-213) GST fusion protein (human, UniProt P05783 2-214).
T2 construct: Alone, not complexed; not shown: glutathione S-transferase (GST) fusion partner, modified pGEX-2T vector
T2 sequence: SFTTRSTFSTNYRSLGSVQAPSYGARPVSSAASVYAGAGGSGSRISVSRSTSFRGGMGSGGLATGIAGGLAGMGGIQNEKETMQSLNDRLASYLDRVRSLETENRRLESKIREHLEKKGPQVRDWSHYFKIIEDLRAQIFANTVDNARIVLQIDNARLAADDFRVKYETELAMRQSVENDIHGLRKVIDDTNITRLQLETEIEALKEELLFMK
Kind of assay: Western blot of SDS-PAGE-separated K18 GST fusion proteins, stained with COU-1 alone.

Assay [3] addresses T3, recombinant intact K18 (GST fusion protein) (human, UniProt P05783 2-430).
T3 construct: Alone, not complexed with K8; also called full length K18; cytokeratin 18; not shown: glutathione S-transferase (GST) fusion partner, modified pGEX-2T vector
T3 sequence: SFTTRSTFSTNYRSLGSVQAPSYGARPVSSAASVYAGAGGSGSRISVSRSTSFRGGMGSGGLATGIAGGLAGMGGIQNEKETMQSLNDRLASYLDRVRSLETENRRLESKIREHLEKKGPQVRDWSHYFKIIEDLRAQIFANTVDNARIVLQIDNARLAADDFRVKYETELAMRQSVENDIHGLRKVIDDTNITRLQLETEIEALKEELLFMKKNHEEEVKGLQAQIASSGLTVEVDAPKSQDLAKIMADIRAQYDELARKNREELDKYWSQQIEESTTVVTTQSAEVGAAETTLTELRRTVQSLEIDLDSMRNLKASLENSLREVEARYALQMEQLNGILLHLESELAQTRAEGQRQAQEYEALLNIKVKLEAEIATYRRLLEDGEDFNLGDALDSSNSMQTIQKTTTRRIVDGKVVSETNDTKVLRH
The assay is described as above.

The target in assay [4] is T4, K18(1-124) GST fusion protein (human, UniProt P05783 2-125).
T4 construct: Alone, not complexed; not shown: glutathione S-transferase (GST) fusion partner, modified pGEX-2T vector
Described as above.

For assay [5], the target named is T5, K18(1-356) GST fusion protein (human, UniProt P05783 2-357).
T5 construct: Alone, not complexed; not shown: glutathione S-transferase (GST) fusion partner, modified pGEX-2T vector
T5 sequence: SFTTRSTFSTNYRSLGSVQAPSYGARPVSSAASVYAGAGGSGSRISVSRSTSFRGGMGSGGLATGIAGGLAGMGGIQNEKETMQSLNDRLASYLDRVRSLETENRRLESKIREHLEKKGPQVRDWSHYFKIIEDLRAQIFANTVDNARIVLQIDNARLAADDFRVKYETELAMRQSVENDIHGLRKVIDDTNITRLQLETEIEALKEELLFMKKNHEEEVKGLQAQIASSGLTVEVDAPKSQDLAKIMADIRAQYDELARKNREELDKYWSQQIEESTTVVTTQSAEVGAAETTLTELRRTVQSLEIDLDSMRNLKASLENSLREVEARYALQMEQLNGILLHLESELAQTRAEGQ
The description is as above.

In assay [6] the target is T6, K18(1-187) GST fusion protein (human, UniProt P05783 2-188).
T6 construct: Alone, not complexed; not shown: glutathione S-transferase (GST) fusion partner, modified pGEX-2T vector
T6 sequence: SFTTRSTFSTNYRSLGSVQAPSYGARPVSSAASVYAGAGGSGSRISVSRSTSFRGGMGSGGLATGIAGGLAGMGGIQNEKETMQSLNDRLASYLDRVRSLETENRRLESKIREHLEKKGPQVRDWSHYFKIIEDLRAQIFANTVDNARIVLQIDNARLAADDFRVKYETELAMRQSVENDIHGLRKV
The description is as above.

Assay [7] addresses T7, K8(1-85)/K18(1-213) heterotypic complex (human, UniProt P05787 2-86; P05783 2-214).
T7 construct: Heterotypic complex of two GST fusion proteins; not shown: glutathione S-transferase (GST) fusion partner, modified pGEX-2T vector
T7 chain 1: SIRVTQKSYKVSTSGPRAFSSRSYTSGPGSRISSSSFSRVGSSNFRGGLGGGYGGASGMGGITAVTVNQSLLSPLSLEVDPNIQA
T7 chain 2: T2 sequence
Kind of assay: heterotypic association assay: blotted K8 proteins incubated with purified K18(1-213), then stained with COU-1.

B1: human monoclonal IgM antibody COU-1 (antibody, V domains shown)
VH: GAEVKKPGASVKVSCKASDYTFSSYYMHWVRQAPGQGLEWMGIINPSGGSTSYAQKFQGRVTMTRDTSTNTVYMELSSLRSEDTAVYYCARDQVVVAATLSNYGMDVWGQGTTVTVSS
VL: ELTQSPGTLSLSPGERATLSCRASQSVSSSYLAWYQQKPGQAPRLLIYDASNRATGIPARFSGSGSGTDFTLTISSLEPEDFAVYYCQQGTNWGIAFGQGTRLDIKR
notes: Human IgM with kappa light chain, secreted by hybridoma B9165 (ECACC 87040201), purified from culture supernatant; also called HMab COU-1; HuMab COU-1
Turning to B1, the binding result in assay [1] is “no binding”; in assay [2] it was “no binding (tested: 5 µg/ml COU-1 (P-0279))”; in assay [3], “no binding (tested: 5 µg/ml COU-1 (P-0279))”; in assay [4], “no binding (tested: 5 µg/ml COU-1 (P-0279))”; in assay [5] it was “no binding (tested: 5 µg/ml COU-1 (P-0279))”; in assay [6], “no binding (tested: 5 µg/ml COU-1 (P-0279))”. In addition, the binding result in assay [7] is given as “no binding (tested: 5 µg/ml COU-1 (P-0285))”.
